# Experimental data from publication PMC12723238, “Structural basis for T-cell intracellular antigen-1 amyloid fibril formation revealed by cryo-electron microscopy” (PNAS Nexus, 2025).
# B1: human wild-type TIA-1 short prion-like domain (sPLD), residues 320-386 (domain or fragment, UniProt P31483 320-386, looked up)
# chain: GQYMPNGWQVPAYGMYGQAWNQQGFNQTQSSAPWMGPNYGVQPPQGQNGSMLPNQPSGYRVAGYETQ
# notes: T-cell intracellular antigen-1 (TIA-1), human, 386 residues; short PLD, residues 320-386; Only residues 336-360 are resolved in the fibril structure; also called WT TIA-1 sPLD; TIA-1 sPLD
# B2: human TIA-1 sPLD (residues 320-386) P362L (domain or fragment, UniProt P31483 320-386, looked up)
# chain: GQYMPNGWQVPAYGMYGQAWNQQGFNQTQSSAPWMGPNYGVQLPQGQNGSMLPNQPSGYRVAGYETQ
# notes: TIA-1, human, short PLD, residues 320-386, with the disease-associated missense mutation P362L
# B3: human TIA-1 sPLD (residues 320-386) A381T (domain or fragment, UniProt P31483 320-386, looked up)
# chain: GQYMPNGWQVPAYGMYGQAWNQQGFNQTQSSAPWMGPNYGVQPPQGQNGSMLPNQPSGYRVTGYETQ
# notes: TIA-1, human, short PLD, residues 320-386, with the disease-associated missense mutation A381T
# B4: human TIA-1 sPLD (residues 320-386) E384K (domain or fragment, UniProt P31483 320-386, looked up)
# chain: GQYMPNGWQVPAYGMYGQAWNQQGFNQTQSSAPWMGPNYGVQPPQGQNGSMLPNQPSGYRVAGYKTQ
# notes: TIA-1, human, short PLD, residues 320-386, with the disease-associated missense mutation E384K
# B5: human TIA-1 sPLD (residues 320-386) W339A (domain or fragment, UniProt P31483 320-386, looked up)
# chain: GQYMPNGWQVPAYGMYGQAANQQGFNQTQSSAPWMGPNYGVQPPQGQNGSMLPNQPSGYRVAGYETQ
# notes: TIA-1, human, short PLD, residues 320-386, with W339A
# B6: human TIA-1 sPLD (residues 320-386) M354A (domain or fragment, UniProt P31483 320-386, looked up)
# chain: GQYMPNGWQVPAYGMYGQAWNQQGFNQTQSSAPWAGPNYGVQPPQGQNGSMLPNQPSGYRVAGYETQ
# notes: TIA-1, human, short PLD, residues 320-386, with M354A
# B7: human TIA-1 sPLD (residues 320-386) G343P (domain or fragment, UniProt P31483 320-386, looked up)
# chain: GQYMPNGWQVPAYGMYGQAWNQQPFNQTQSSAPWMGPNYGVQPPQGQNGSMLPNQPSGYRVAGYETQ
# notes: TIA-1, human, short PLD, residues 320-386, with G343P
# B8: human TIA-1 sPLD (residues 320-386) Q346L (domain or fragment, UniProt P31483 320-386, looked up)
# chain: GQYMPNGWQVPAYGMYGQAWNQQGFNLTQSSAPWMGPNYGVQPPQGQNGSMLPNQPSGYRVAGYETQ
# notes: TIA-1, human, short PLD, residues 320-386, with Q346L
# B9: human TIA-1 sPLD (residues 320-386) Q348L (domain or fragment, UniProt P31483 320-386, looked up)
# chain: GQYMPNGWQVPAYGMYGQAWNQQGFNQTLSSAPWMGPNYGVQPPQGQNGSMLPNQPSGYRVAGYETQ
# notes: TIA-1, human, short PLD, residues 320-386, with Q348L
# B10: human TIA-1 sPLD (residues 320-386) W353A (domain or fragment, UniProt P31483 320-386, looked up)
# chain: GQYMPNGWQVPAYGMYGQAWNQQGFNQTQSSAPAMGPNYGVQPPQGQNGSMLPNQPSGYRVAGYETQ
# notes: TIA-1, human, short PLD, residues 320-386, with W353A
# B11: synthesized peptide of the 25-residue TIA-1 fibril core (TFC peptide), residues 336-360 (peptide, UniProt P31483 336-360, looked up)
# peptide: GQAWNQQGFNQTQSSAPWMGPNYGV
# notes: TIA-1, human, fibril core region, residues 336-360 (25 residues); also called TFC peptide fibrils; TFC fibrils; source: synthetic peptide
# B12: human TIA-1 sPLD (residues 320-386) with the G355R missense mutation (domain or fragment, UniProt P31483 320-386, looked up)
# chain: GQYMPNGWQVPAYGMYGQAWNQQGFNQTQSSAPWMRPNYGVQPPQGQNGSMLPNQPSGYRVAGYETQ
# notes: TIA-1, human, short PLD, residues 320-386, with G355R (found in genetic research on ALS/FTD); Only residues 334-349 are resolved in the fibril structure; also called G355R TIA-1 sPLD; TIA-1 G355R fibrils
# B13: full-length human TIA-1 WT (natural protein, UniProt P31483 1-386, looked up)
# chain: MEDEMPKTLYVGNLSRDVTEALILQLFSQIGPCKNCKMIMDTAGNDPYCFVEFHEHRHAAAALAAMNGRKIMGKEVKVNWATTPSSQKKDTSSSTVVSTQRSQDHFHVFVGDLSPEITTEDIKAAFAPFGRISDARVVKDMATGKSKGYGFVSFFNKWDAENAIQQMGGQWLGGRQIRTNWATRKPPAPKSTYESNTKQLSYDEVVNQSSPSNCTVYCGGVTSGLTEQLMRQTFSPFGQIMEIRVFPDKGYSFVRFNSHESAAHAIVSVNGTTIEGHVVKCYWGKETLDMINPVQQQNQIGYPQPYGQWGQWYGNAQQIGQYMPNGWQVPAYGMYGQAWNQQGFNQTQSSAPWMGPNYGVQPPQGQNGSMLPNQPSGYRVAGYETQ
# notes: T-cell intracellular antigen-1 (TIA-1), human, full length, 386 residues (three RRMs followed by the PLD); also called full-length TIA-1; FL; source: recombinant
# B14: full-length human TIA-1 G355R (natural protein, UniProt P31483 1-386, looked up)
# chain: MEDEMPKTLYVGNLSRDVTEALILQLFSQIGPCKNCKMIMDTAGNDPYCFVEFHEHRHAAAALAAMNGRKIMGKEVKVNWATTPSSQKKDTSSSTVVSTQRSQDHFHVFVGDLSPEITTEDIKAAFAPFGRISDARVVKDMATGKSKGYGFVSFFNKWDAENAIQQMGGQWLGGRQIRTNWATRKPPAPKSTYESNTKQLSYDEVVNQSSPSNCTVYCGGVTSGLTEQLMRQTFSPFGQIMEIRVFPDKGYSFVRFNSHESAAHAIVSVNGTTIEGHVVKCYWGKETLDMINPVQQQNQIGYPQPYGQWGQWYGNAQQIGQYMPNGWQVPAYGMYGQAWNQQGFNQTQSSAPWMRPNYGVQPPQGQNGSMLPNQPSGYRVAGYETQ
# notes: TIA-1, human, full length, 386 residues, with the missense mutation G355R (found in genetic research on ALS/FTD); source: recombinant
# B15: full-length human TIA-1 P362L (natural protein, UniProt P31483 1-386, looked up)
# chain: MEDEMPKTLYVGNLSRDVTEALILQLFSQIGPCKNCKMIMDTAGNDPYCFVEFHEHRHAAAALAAMNGRKIMGKEVKVNWATTPSSQKKDTSSSTVVSTQRSQDHFHVFVGDLSPEITTEDIKAAFAPFGRISDARVVKDMATGKSKGYGFVSFFNKWDAENAIQQMGGQWLGGRQIRTNWATRKPPAPKSTYESNTKQLSYDEVVNQSSPSNCTVYCGGVTSGLTEQLMRQTFSPFGQIMEIRVFPDKGYSFVRFNSHESAAHAIVSVNGTTIEGHVVKCYWGKETLDMINPVQQQNQIGYPQPYGQWGQWYGNAQQIGQYMPNGWQVPAYGMYGQAWNQQGFNQTQSSAPWMGPNYGVQLPQGQNGSMLPNQPSGYRVAGYETQ
# notes: TIA-1, human, full length, 386 residues, with the disease-associated missense mutation P362L; source: recombinant
# B16: full-length human TIA-1 A381T (natural protein, UniProt P31483 1-386, looked up)
# chain: MEDEMPKTLYVGNLSRDVTEALILQLFSQIGPCKNCKMIMDTAGNDPYCFVEFHEHRHAAAALAAMNGRKIMGKEVKVNWATTPSSQKKDTSSSTVVSTQRSQDHFHVFVGDLSPEITTEDIKAAFAPFGRISDARVVKDMATGKSKGYGFVSFFNKWDAENAIQQMGGQWLGGRQIRTNWATRKPPAPKSTYESNTKQLSYDEVVNQSSPSNCTVYCGGVTSGLTEQLMRQTFSPFGQIMEIRVFPDKGYSFVRFNSHESAAHAIVSVNGTTIEGHVVKCYWGKETLDMINPVQQQNQIGYPQPYGQWGQWYGNAQQIGQYMPNGWQVPAYGMYGQAWNQQGFNQTQSSAPWMGPNYGVQPPQGQNGSMLPNQPSGYRVTGYETQ
# notes: TIA-1, human, full length, 386 residues, with the disease-associated missense mutation A381T; source: recombinant
# B17: full-length human TIA-1 E384K (natural protein, UniProt P31483 1-386, looked up)
# chain: MEDEMPKTLYVGNLSRDVTEALILQLFSQIGPCKNCKMIMDTAGNDPYCFVEFHEHRHAAAALAAMNGRKIMGKEVKVNWATTPSSQKKDTSSSTVVSTQRSQDHFHVFVGDLSPEITTEDIKAAFAPFGRISDARVVKDMATGKSKGYGFVSFFNKWDAENAIQQMGGQWLGGRQIRTNWATRKPPAPKSTYESNTKQLSYDEVVNQSSPSNCTVYCGGVTSGLTEQLMRQTFSPFGQIMEIRVFPDKGYSFVRFNSHESAAHAIVSVNGTTIEGHVVKCYWGKETLDMINPVQQQNQIGYPQPYGQWGQWYGNAQQIGQYMPNGWQVPAYGMYGQAWNQQGFNQTQSSAPWMGPNYGVQPPQGQNGSMLPNQPSGYRVAGYKTQ
# notes: TIA-1, human, full length, 386 residues, with the disease-associated missense mutation E384K; source: recombinant
# Tests used:
# [1] = molecular target: the molecule itself; experiment: cryo-EM structure; twisted amyloid fibrils of TIA-1 sPLD; fibrils grown by adding sonicated seeds to a monomer solution in 0.1% trifluoroacetic acid; helical reconstruction, two protofilaments
# [2] = molecular target: the molecule itself; experiment: thioflavin T fluorescence + negative-stain TEM; fibril formation of TIA-1 sPLD from phase-separated condensates, without TC5, physiological buffer, 30 °C, 3 days
# [3] = molecular target: the molecule itself; experiment: thioflavin T fluorescence + negative-stain TEM; fibril formation of the synthetic TFC peptide alone, 100 to 12.5 μM
# [4] = molecular target: the molecule itself; experiment: thioflavin T fluorescence + negative-stain TEM; fibril formation of recombinant full-length TIA-1 from phase-separated condensates, with single-stranded DNA TC5, physiological buffer, 30 °C, up to 3 days
Protein,binding result [2],also measured
B1,–,binding result [1]: binds
B2,binds,–
B3,binds,–
B4,binds,–
B5,binds,–
B6,binds,–
B7,binds,–
B8,binds,–
B9,binds,–
B10,binds,–
B11,–,binding result [3]: binds
B12,–,binding result [1]: binds
B13,–,binding result [4]: binds
B14,–,binding result [4]: binds
B15,–,binding result [4]: binds
B16,–,binding result [4]: binds
B17,–,binding result [4]: binds
